Experiments:
[1] = tested on: recombinant BDNF and pTrkB; test: Western blot detection of recombinant BDNF and pTrkB in brain; type: in vivo, SJL/elite mice; conditions: BDNF 5.71 nmol/kg i.v. with or without ADTC5 10 μmol/kg; 20 min; n=3
Experimental: Female SJL/elite mice, 5 weeks of age (Charles River) were initially intravenously injected via lateral tail vein with 5.71 nmol/kg BDNF (Peprotech, Rocky Hill, N.J.) with (n=3) or without (n=3) 10 μmol/kg ADTC5. BDNF was allowed to circulate for 20-30 min prior to euthanasia via CO2. Immediately following euthanasia, mice were transcardially perfused with protease inhibitor infused TRIS buffer (pH 7.4). The brains of the mice were extracted and placed in the perfusate buffer on ice. For Western blotting, 100-150 mg of brain tissue was sectioned from the most ventral-posterior portion of the brain and placed in 200-250 μL of solution mixture containing 66% tissue protein extraction reagent (TPER; Thermo Fisher, Waltham, […].) and 33% […] neural protein extraction reagent (NPER; Thermo Fisher) with protease and phosphatase inhibitors (Thermo Fisher). […] These bands were not densiometrically analyzed due to high background signal; however, they are shown for qualitative analysis.
To improve the level of detection of BDNF and pTrkB bands via Western blot, the above process was repeated with an increase in dosages of BDNF. […] These images were not quantified due to the variation in dosing regiments; however, they are provided for qualitative analysis of BDNF brain depositions.

[2] = tested on: myelin in the lateral corpus callosum; test: Remyelination in EAE mouse brain, Luxol fast blue staining; type: in vivo, SJL/elite mice; conditions: EAE mice; BDNF 5.71 nmol/kg ± ADTC5 10 μmol/kg; n=5; compared to BDNF alone or vehicle
Excerpt: Euthanasia, Brain Perfusion, and Extraction: All mice were euthanized via a CO2 chamber. Immediately following euthanasia, mice underwent cervical dislocation and were transcardially perfused with PBS+0.2% Tween-20 followed by perfusion-fixation with a 4% paraformaldehyde and 30% sucrose PBS solution. Following the fixation, the brains were extracted and post-fixed overnight in the perfusion-fixation solution.
Fixed brain samples were submitted to IHC World (Ellicott City, Md.) for paraffin embedding, tissue sectioning (5 μm), anti-NG2 (Abcam, Cambridge, UK) staining via DAB, and Luxol-fast blue staining. Staining protocols described on the IHC World website for Luxol-fast blue and immunohistochemistry enzyme HRP were performed. […]
Luxol-fast blue and anti-NG2 mAb images were taken under identical conditions on a Zeiss Axioplan 2 microscope (Oberkochen, Germany) equipped with a mercury lamp excitation source, and 40× (Luxol) and 20× (anti-NG2) air objective lenses. Greyscale images for quantification were taken using a 1344×1024 Orca ER CCD camera (Hamamatsu Photonics, Japan), color images for qualitative purposes were taken using a 1.3 MP Spot Color camera (Spot Imaging, Sterling Heights, Mich.). […] The mean value of each ROI from each image was recorded. […] The integrated mean grey value for each ROI from each image was recorded. […]

B1: BDNF: recombinant brain-derived neurotrophic factor (13 kDa monomer), Peprotech (protein, UniProt P23560 19-247, looked up)
Neurotrophic factor BDNF …: APMKEANIRGQGGLAYPGVRTHGTLESVNGPKAGSRGLTSLADTFEHVIEELLDEDQKVRPNEENNKDADLYTSRVMLSSQVPLEPPLLFLLEEYKNYLDAANMSMRVRRHSDPARRGELSVCDSISEWVTAADKKTAVDMSGGTVTVLEKVPVSKGQLKQYFYETKCNPMGYTKEGCRGIDKRHWNSQCRTTQSYVRALTMDSKKRIGWRFIRIDTSCVCTLTIKRGR
B1 was tested. Which “detection of BDNF bands in the brain” value [1] did it give?
Its value is “undetected”.

What about the “myelin density in the lateral corpus callosum” value [2] of the same molecule?
The value was “myelin discontinuity”.

From patent US20220227815A1, “COMPOSITIONS AND METHODS USEFUL IN TREATING BRAIN DISEASES” (University of Kansas, priority 2019, published 2022)
